Results published in IntAct's records for PubMed 19412162.

B1: F-box only protein 31 (Homo sapiens), Q5XUX0 (parent)
chain: MAVCARLCGVGPSRGCRRRQQRRGPAETAAADSEPDTDPEEERIEASAGVGGGLCAGPSPPPPRCSLLELPPELLVEIFASLPGTDLPSLAQVCTKFRRILHTDTIWRRRCREEYGVCENLRKLEITGVSCRDVYAKLLHRYRHILGLWQPDIGPYGGLLNVVVDGLFIIGWMYLPPHDPHVDDPMRFKPLFRIHLMERKAATVECMYGHKGPHHGHIQIVKKDEFSTKCNQTDHHRMSGGRQEEFRTWLREEWGRTLEDIFHEHMQELILMKFIYTSQYDNCLTYRRIYLPPSRPDDLIKPGLFKGTYGSHGLEIVMLSFHGRRARGTKITGDPNIPAGQQTVEIDLRHRIQLPDLENQRNFNELSRIVLEVRERVRQEQQEGGHEAGEGRGRQGPRESQPSPAQPRAEAPSKGPDGTPGEDGGEPGDAVAAAEQPAQCGQGQPFVLPVGVSSRNEDYPRTCRMCFYGTGLIAGHGFTSPERTPGVFILFDEDRFGFVWLELKSFSLYSRVQATFRNADAPSPQAFDEMLKNIQSLTS

Variants of: B1
Conditions: with atm_human ATM

Variant	effect of a mutation on the interaction
S400A	disrupting interaction
S278A	disrupting interaction
